These results are taken from patent publication US20260167721A1 (ABLEXIS, published 2026).

Numbering of substitutions follows the chain as printed.

Sequences and labels used below:
B1: CD3 × CD33-BspAb125 (bispecific antibody)
chain 1: not shown
chain 2: EVQLVQSGAEVKKPGSSVKVSCKASGYTITDSNIHWVRQAPGQSLEWIGYIYPYNGGTDYNQKFKNRATLTVDNPTNTAYMELSSLRSEDTAFYYCVNGNPWLAYWGQGTLVTVSSASTKGPSVFPLAPSSKSTSGGTAALGCLVKDYFPEPVTVSWNSGALTSGVHTFPAVLQSSGLYSLSSVVTVPSSSLGTQTYICNVNHKPSNTKVDKRVEPKSCDKTHTCPPCPAPEFEGGPSVFLFPPKPKDTLMISRTPEVTCVVVDVSHEDPEVKFNWYVDGVEVHNAKTKPREEQYNSTYRVVSVLTVLHQDWLNGKEYKCKVSNKALPASIEKTISKAKGQPREPQVCTLPPSREEMTKNQVSLSCAVKGFYPSDIAVEWESNGQPENNYKTTPPVLDSDGSFFLVSKLTVDKSRWQQGNVFSCSVMHEALHNRFTQKSLSLSPGK
chain 3: DIQLTQSPSTLSASVGDRVTITCRASESLDNYGIRFLTWFQQKPGKAPKLLMYAASNQGSGVPSRFSGSGSGTEFTLTISSLQPDDFATYYCQQTKEVPWSFGQGTKVEVKRTVAAPSVFIFPPSDEQLKSGTASVVCLLNNFYPREAKVQWKVDNALQSGNSQESVTEQDSKDSTYSLSSTLTLSKADYEKHKVYACEVTHQGLSSPVTKSFNRGEC
B2: CD3 × CD33-BspAb69 (bispecific antibody)
chain 1: EVQLVESGGGLVKPGGSLRLSCAASGFTFSYYSMNWVRQAPGKCLEWVSSISRSTTYIYYADSVKGRFTISRDNAKNSLYLQMNSLRAEDTAVYYCARDGKGAIFLDYWGQGTLVTVSSGGGGSGGGGSGGGGSGGGGSSYELTQPPSVSVSPGQTARITCSGDALPKKYAYWYQQKSGQAPVLVIYEDSKRPSGIPERFSGSSSGTMATLTISGAQVEDEADYYCYSTDSSGNHRVFGCGTKLTVLDKTHTCPPCPAPEFEGGPSVFLFPPKPKDTLMISRTPEVTCVVVDVSHEDPEVKFNWYVDGVEVHNAKTKPREEQYNSTYRVVSVLTVLHQDWLNGKEYKCKVSNKALPASIEKTISKAKGQPREPQVYTLPPCREEMTKNQVSLWCLVKGFYPSDIAVEWESNGQPENNYKTTPPVLDSDGSFFLYSKLTVDKSRWQQGNVFSCSVMHEALHNHYTQKSLSLSPGK
chain 2: B1 chain 2
chain 3: B1 chain 3
B3: CD3 × CD33-BspAb68 (bispecific antibody)
scFv-Fc: EVQLVESGGGLVKPGGSLRLSCSASGFTFSTYTMNWVRQAPGKCLEWVSSISKSSSYIYYTDSVKGRFTISRDNAKNSLYLQMNSLRAEDTAVYYCARERRTLAFDIWGQGTMVTVSSGGGGSGGGGSGGGGSGGGGSNFMLTQPHSVSESPGKTVTISCTRSSGSIASNYVQWYQQRPGSSPTTVIYEDNQRSSGVPDRFSGSIDSSSNSASLTISGLKTEDEADYYCQSYDRSNRVFGCGTKLTVLGGGGSDKTHTCPPCPAPEFEGGPSVFLFPPKPKDTLMISRTPEVTCVVVDVSHEDPEVKFNWYVDGVEVHNAKTKPREEQYNSTYRVVSVLTVLHQDWLNGKEYKCKVSNKALPASIEKTISKAKGQPREPQVYTLPPCREEMTKNQVSLWCLVKGFYPSDIAVEWESNGQPENNYKTTPPVLDSDGSFFLYSKLTVDKSRWQQGNVFSCSVMHEALHNHYTQKSLSLSPGK
heavy: B1 chain 2
light: B1 chain 3
notes: KiH heterodimer
B4: ABL-CD3-43 (antibody, V domains shown)
VH: EVQLVQSGAEVKKPGESLKISCKGSEYSFTTYWIAWVRQMPGKGLEWMGIIYPGDSDTTYSPSFQGQVTISADKSISIAFLQWSSLKASDTAMYYCARQGELDAFDIWGQGTMVTVSS
VL: QSALTQPASVSGSPGQSITISCTGTSSDVGSYNLVSWYQQHPGKAPKLMIYEDIRRPSGVSNRFSASKSGDTASLTISGLQAEDEADYYCCSYAGSTTFAIFGGGTKLTVL
notes: Chimeric hybridoma mAb: human V, CH1, upper hinge; mouse middle hinge, CH2, CH3
B5: ABL-CD3-46 (antibody, V domains shown)
VH: EVQLVESGGGLVKPGGSLRLSCSASGFTFSTYTMNWVRQAPGKGLDWVSSISKSSTYIYYADSVKGRFTISRDNAKNSLYLQMNSLRAEDTAVYYCARERRTLAFDIWGQGTMVTVSS
VL: NFMLTQPHSVSESPGKTVTISCTRSSGSIASNYVQWYQQRPGSSPTTVIYEDNQRPSGVPDRFSGSIDSSSNSASLTISGLKTEDEADYYCQCYDRSNRVFGGGTKLTVL
notes: as for B4
B6: ABL-CD3-63 (antibody, V domains shown)
VH: QVQLQESGPGLVKPSETLSLTCTVSGGSISSYYWSWIRQPAGKGLEWIGRIYTSGSTKYNPSLKSRVTMSVDTSKNQFSLKLISVTAADTAVYFCARERIRDLYFDYWGQGTLVTVSS
VL: B5 VL with S25T, D88A, C93S
notes: as for B4
B7: ABL-CD3-60 (antibody, V domains shown)
VH: EVQLVESGGGLVKPGGSLRLSCAASGFTFSIYSMNWVRQAPGKGLEWVSSISSGSSYIYYADSVKGRFTISRDNAKSSLFLQMNSLRAEDTAVYYCAREKRELLFDYWGQGTLVTVSS
VL: B5 VL with S69R, C93S, R96S
notes: as for B4
B8: ABL-CD3-49 (antibody, V domains shown)
VH: B5 VH with D46E, T56S, A61T
VL: B5 VL with P56S
notes: as for B4

The term Kd denotes a measure of binding affinity in units of concentration. What is called koff is the rate constant with which the complex falls apart. One may read the kon as the second-order rate constant of association.

T3 sequence (P07766 23-126, chain 1 of 2): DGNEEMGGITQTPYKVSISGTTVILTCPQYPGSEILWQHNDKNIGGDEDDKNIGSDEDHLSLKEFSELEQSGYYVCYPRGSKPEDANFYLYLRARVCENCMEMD
T3 sequence (P09693 23-116, chain 2 of 2): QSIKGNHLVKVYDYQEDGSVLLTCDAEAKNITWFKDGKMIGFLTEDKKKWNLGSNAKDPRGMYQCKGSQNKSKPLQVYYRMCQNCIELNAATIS
T2 sequence (P07766 23-126, stated change not applied, chain 1 of 2): as the sequence (P07766 23-126, chain 1 of 2) above
T2 sequence (P04234 22-105, stated change not applied, chain 2 of 2): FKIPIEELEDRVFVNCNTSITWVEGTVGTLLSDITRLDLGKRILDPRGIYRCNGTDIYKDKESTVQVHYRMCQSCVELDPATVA

For the first assay, the target named is T1, human CD3 (TCR/CD3 complex on the cell surface) (human, UniProt P07766 23-207; P04234 22-171; P09693 23-182).
T1 construct: whole, on cells; Native CD3 on human Pan-T cells or Jurkat wild-type cells; also called CD3 on Pan-T cells; CD3 on Jurkat WT cells
T1 sequence (P07766 23-207, chain 1 of 3): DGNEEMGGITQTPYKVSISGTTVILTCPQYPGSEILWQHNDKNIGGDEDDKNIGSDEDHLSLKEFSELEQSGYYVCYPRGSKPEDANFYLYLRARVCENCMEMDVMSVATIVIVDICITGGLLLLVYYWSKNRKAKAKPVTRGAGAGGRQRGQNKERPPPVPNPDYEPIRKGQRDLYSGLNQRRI
T1 sequence (P04234 22-171, chain 2 of 3): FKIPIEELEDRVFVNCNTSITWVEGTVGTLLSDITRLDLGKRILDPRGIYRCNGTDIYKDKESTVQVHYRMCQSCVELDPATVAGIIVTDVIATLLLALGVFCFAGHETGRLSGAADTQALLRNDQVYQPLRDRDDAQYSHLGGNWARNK
T1 sequence (P09693 23-182, chain 3 of 3): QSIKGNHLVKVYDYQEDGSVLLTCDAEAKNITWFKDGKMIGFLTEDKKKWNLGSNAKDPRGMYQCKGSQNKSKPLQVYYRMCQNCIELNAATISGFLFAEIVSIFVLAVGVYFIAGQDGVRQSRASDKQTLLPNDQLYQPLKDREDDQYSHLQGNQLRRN
Briefly: flow cytometry, Pan-T cells, 1 ug/mL. A general note: A flow cytometer gives signals particle by particle.
In the case of B1, the “% Positive” value came out at 42.2% and the gMFI was determined as 6020 gMFI.
Consider B2, for which the “% Positive” value was determined as 99.7% and the gMFI is 95300 gMFI.
Take B3: the “% Positive” value was 100% and the gMFI amounted to 539000 gMFI.

The target of the next assay is T1, human CD3 (TCR/CD3 complex on the cell …). The assay can be described thus: flow cytometry, Pan-T cells, 10 ug/mL.
On to B1, for which the “% Positive” value came out at 95.4% and the gMFI came out at 28700 gMFI.
Turning to B2, the “% Positive” value was 99.8% and the gMFI stood at 281000 gMFI.
Consider B3, for which the “% Positive” value came to 99.9% and the gMFI is 601000 gMFI.

The target is the same in the next assay. Briefly: flow cytometry, Jurkat WT cells, 1 ug/mL.
In turn, B1 gave a gMFI of 3680 gMFI.
In the case of B2, the gMFI is 16500 gMFI.
As for B3, the gMFI was 58000 gMFI.

Another assay has the same target. The assay can be described thus: flow cytometry, Jurkat WT cells, 10 ug/mL.
B1 yielded a gMFI of 13700 gMFI.
Molecule B2 had a gMFI of 25800 gMFI.
Take B3: the gMFI amounted to 63600 gMFI.

Another assay shares this target. Briefly: flow cytometry, Jurkat WT gMFI over Jurkat KO gMFI, 1 ug/mL.
Turning to B1, the “Jurkat WT/KO (Fold)” value was 1.5 fold.
B2: the “Jurkat WT/KO (Fold)” value stood at 6.3 fold.
Take B3: the “Jurkat WT/KO (Fold)” value was 12.9 fold.

A further assay addresses T2, recombinant human CD3 epsilon/delta heterodimer (human, UniProt P07766 23-126; P04234 22-105).
T2 construct: Recombinant protein in solution (200-50 nM) in the Octet assay; also called hCD3 E/D; human CD3E/D
The assay can be described thus: Octet BLI, mAb on FAB2G sensor, hCD3 E/D 200-50 nM; R^2 0.99. In general terms: Biolayer interferometry detects binding as a change in optical thickness at a sensor tip.
B4: the Kd was found to be 6.2 nM, the Response amounted to 0.62, the koff amounted to 0.000754 s⁻¹ and the kon was determined as 122000 M⁻¹ s⁻¹.
B5: the Kd turned out to be 9.48 nM, the Response is 1.02, the koff was found to be 0.00171 s⁻¹ and the kon came out at 180000 M⁻¹ s⁻¹.
Regarding B6, the Kd turned out to be 11.5 nM, the Response stood at 0.89, the koff came out at 0.00145 s⁻¹ and the kon was found to be 127000 M⁻¹ s⁻¹.
Turning to B7, the Kd turned out to be 231 nM, the Response was 0.1, the koff came out at 0.0962 s⁻¹ and the kon worked out at 417000 M⁻¹ s⁻¹.
In the case of B8, the dissociation constant Kd came out at 6.52 nM, the Response was 0.93, the koff was determined as 0.00131 s⁻¹ and the kon was 200000 M⁻¹ s⁻¹.

Another assay has as its target T3, recombinant human CD3 epsilon/gamma heterodimer (human, UniProt P07766 23-126; P09693 23-116).
T3 construct: Recombinant protein in solution (200-50 nM) in the Octet assay; also called hCD3 E/G
Briefly: Octet BLI, mAb on FAB2G sensor, hCD3 E/G 200-50 nM; R^2 0.98.
Take B4: the Kd stood at 6.94 nM, the Response was 0.62, the koff stood at 0.00104 s⁻¹ and the association rate constant (kon) was 150000 M⁻¹ s⁻¹.
As to B5, the Kd came to 16.3 nM, the Response stood at 0.88, the koff was determined as 0.00333 s⁻¹ and the kon is 204000 M⁻¹ s⁻¹.
Take B6: the Kd was 90.4 nM, the Response is 0.34, the koff was 0.0182 s⁻¹ and the kon is 202000 M⁻¹ s⁻¹.
In the same order, the values of B7 are 90.7 nM, 0.07, 0.0583 s⁻¹ and 642000 M⁻¹ s⁻¹.
Regarding B8, the Kd worked out at 11.4 nM, the Response worked out at 0.82, the koff came to 0.00253 s⁻¹ and the kon was 223000 M⁻¹ s⁻¹.

For a further assay, the target named is T1, human CD3 (TCR/CD3 complex on the cell …). The assay can be described thus: flow cytometry, Jurkat WT gMFI over Jurkat KO gMFI, 10 ug/mL.
For the molecule B1, the “Jurkat WT/KO (Fold)” value turned out to be 5.3 fold.
For the molecule B2, the “Jurkat WT/KO (Fold)” value came out at 8.7 fold.
Take B3: the “Jurkat WT/KO (Fold)” value came to 13.6 fold.
